Reference: US20210032299A1 (Eli Lilly, published 2021)
Starred links: 1 amine or outer side, 2 acyl side, 3 side chain; linkers in the order of their positions; H or OH if unused. Non-standard residues stand in square brackets, D forms with d. Groups on a side chain read outwards from the residue. No end group written: not given here. *: point of attachment. C20 diacid = O=C(O)CCCCCCCCCCCCCCCCCCC(=O)*; C18 diacid = O=C(O)CCCCCCCCCCCCCCCCC(=O)*; αMePhe(2-F) = C[C@](N)(Cc1ccccc1F)C(=O)O; γGlu = O=C(O)[C@H](CCC(=O)[*:2])N[*:1]; αMeF = C[C@](N)(Cc1ccccc1)C(=O)O; 4Pal = N[C@@H](Cc1ccncc1)C(=O)O; αMeL = CC(C)C[C@](C)(N)C(=O)O; AEEA = NCCOCCOCC(=O)O; Aib = CC(C)(N)C(=O)O

B1: Example 55 (peptide)
peptide: YXEGTXISDYSIXLDKKHQXDFVEXLLAGGPSSGAPPPS
modifications: Aib2; Iva6; αMeL13; K17((2-[2-(2-Amino-ethoxy)-ethoxy]-acetyl)2-(γ-Glu)-CO-(CH2)18-CO2H); Aib20; 4-Pal25; C-terminal amide
B2: Example 49 (peptide)
peptide: Y[Aib]EGTFISDYSI[αMeL]LDKK([AEEA-AEEA-γGlu-C18 diacid])HQ[Aib]DFVE[4Pal]LLAGGPSSGAPPPS-NH2
modifications: N-terminus assumed
SMILES: CC[C@H](C)[C@H](NC(=O)[C@H](Cc1ccccc1)NC(=O)[C@@H](NC(=O)CNC(=O)[C@H](CCC(=O)O)NC(=O)C(C)(C)NC(=O)[C@@H](N)Cc1ccc(O)cc1)[C@@H](C)O)C(=O)N[C@@H](CO)C(=O)N[C@@H](CC(=O)O)C(=O)N[C@@H](Cc1ccc(O)cc1)C(=O)N[C@@H](CO)C(=O)N[C@H](C(=O)N[C@@](C)(CC(C)C)C(=O)N[C@@H](CC(C)C)C(=O)N[C@@H](CC(=O)O)C(=O)N[C@@H](CCCCN)C(=O)N[C@@H](CCCCNC(=O)COCCOCCNC(=O)COCCOCCNC(=O)CC[C@H](NC(=O)CCCCCCCCCCCCCCCCC(=O)O)C(=O)O)C(=O)N[C@@H](Cc1c[nH]cn1)C(=O)N[C@@H](CCC(N)=O)C(=O)NC(C)(C)C(=O)N[C@@H](CC(=O)O)C(=O)N[C@@H](Cc1ccccc1)C(=O)N[C@H](C(=O)N[C@@H](CCC(=O)O)C(=O)N[C@@H](Cc1ccncc1)C(=O)N[C@@H](CC(C)C)C(=O)N[C@@H](CC(C)C)C(=O)N[C@@H](C)C(=O)NCC(=O)NCC(=O)N1CCC[C@H]1C(=O)N[C@@H](CO)C(=O)N[C@@H](CO)C(=O)NCC(=O)N[C@@H](C)C(=O)N1CCC[C@H]1C(=O)N1CCC[C@H]1C(=O)N1CCC[C@H]1C(=O)N[C@@H](CO)C(N)=O)C(C)C)[C@@H](C)CC
B3: Example 35 (peptide)
peptide: Y[Aib]EGT[αMeL]ISDYSIALDKK([AEEA-AEEA-γGlu-C20 diacid])HQ[Aib]EFVNYLLATGPSSGAPPPS-NH2
modifications: N-terminus assumed
SMILES: CC[C@H](C)[C@H](NC(=O)[C@H](CO)NC(=O)[C@H](Cc1ccc(O)cc1)NC(=O)[C@H](CC(=O)O)NC(=O)[C@H](CO)NC(=O)[C@@H](NC(=O)[C@](C)(CC(C)C)NC(=O)[C@@H](NC(=O)CNC(=O)[C@H](CCC(=O)O)NC(=O)C(C)(C)NC(=O)[C@@H](N)Cc1ccc(O)cc1)[C@@H](C)O)[C@@H](C)CC)C(=O)N[C@@H](C)C(=O)N[C@@H](CC(C)C)C(=O)N[C@@H](CC(=O)O)C(=O)N[C@@H](CCCCN)C(=O)N[C@@H](CCCCNC(=O)COCCOCCNC(=O)COCCOCCNC(=O)CC[C@H](NC(=O)CCCCCCCCCCCCCCCCCCC(=O)O)C(=O)O)C(=O)N[C@@H](Cc1c[nH]cn1)C(=O)N[C@@H](CCC(N)=O)C(=O)NC(C)(C)C(=O)N[C@@H](CCC(=O)O)C(=O)N[C@@H](Cc1ccccc1)C(=O)N[C@H](C(=O)N[C@@H](CC(N)=O)C(=O)N[C@@H](Cc1ccc(O)cc1)C(=O)N[C@@H](CC(C)C)C(=O)N[C@@H](CC(C)C)C(=O)N[C@@H](C)C(=O)N[C@H](C(=O)NCC(=O)N1CCC[C@H]1C(=O)N[C@@H](CO)C(=O)N[C@@H](CO)C(=O)NCC(=O)N[C@@H](C)C(=O)N1CCC[C@H]1C(=O)N1CCC[C@H]1C(=O)N1CCC[C@H]1C(=O)N[C@@H](CO)C(N)=O)[C@@H](C)O)C(C)C
B4: Example 41 (peptide)
peptide: Y[Aib]EGT[αMeF]ISDYSIALDKK([AEEA-AEEA-γGlu-C20 diacid])HQ[Aib]DFVE[4Pal]LLETGPSSGAPPPS-NH2
modifications: N-terminus assumed
SMILES: CC[C@H](C)[C@H](NC(=O)[C@H](CO)NC(=O)[C@H](Cc1ccc(O)cc1)NC(=O)[C@H](CC(=O)O)NC(=O)[C@H](CO)NC(=O)[C@@H](NC(=O)[C@](C)(Cc1ccccc1)NC(=O)[C@@H](NC(=O)CNC(=O)[C@H](CCC(=O)O)NC(=O)C(C)(C)NC(=O)[C@@H](N)Cc1ccc(O)cc1)[C@@H](C)O)[C@@H](C)CC)C(=O)N[C@@H](C)C(=O)N[C@@H](CC(C)C)C(=O)N[C@@H](CC(=O)O)C(=O)N[C@@H](CCCCN)C(=O)N[C@@H](CCCCNC(=O)COCCOCCNC(=O)COCCOCCNC(=O)CC[C@H](NC(=O)CCCCCCCCCCCCCCCCCCC(=O)O)C(=O)O)C(=O)N[C@@H](Cc1c[nH]cn1)C(=O)N[C@@H](CCC(N)=O)C(=O)NC(C)(C)C(=O)N[C@@H](CC(=O)O)C(=O)N[C@@H](Cc1ccccc1)C(=O)N[C@H](C(=O)N[C@@H](CCC(=O)O)C(=O)N[C@@H](Cc1ccncc1)C(=O)N[C@@H](CC(C)C)C(=O)N[C@@H](CC(C)C)C(=O)N[C@@H](CCC(=O)O)C(=O)N[C@H](C(=O)NCC(=O)N1CCC[C@H]1C(=O)N[C@@H](CO)C(=O)N[C@@H](CO)C(=O)NCC(=O)N[C@@H](C)C(=O)N1CCC[C@H]1C(=O)N1CCC[C@H]1C(=O)N1CCC[C@H]1C(=O)N[C@@H](CO)C(N)=O)[C@@H](C)O)C(C)C
B5: Example 121 (peptide)
peptide: Y[Aib]EGT[αMePhe(2-F)]ISDYSILLDKIHQ[Aib]DFVE[4Pal]K([AEEA-AEEA-γGlu-C20 diacid])LEQGPSSGAPPPS-NH2
modifications: N-terminus assumed
SMILES: CC[C@H](C)[C@H](NC(=O)[C@H](CO)NC(=O)[C@H](Cc1ccc(O)cc1)NC(=O)[C@H](CC(=O)O)NC(=O)[C@H](CO)NC(=O)[C@@H](NC(=O)[C@](C)(Cc1ccccc1F)NC(=O)[C@@H](NC(=O)CNC(=O)[C@H](CCC(=O)O)NC(=O)C(C)(C)NC(=O)[C@@H](N)Cc1ccc(O)cc1)[C@@H](C)O)[C@@H](C)CC)C(=O)N[C@@H](CC(C)C)C(=O)N[C@@H](CC(C)C)C(=O)N[C@@H](CC(=O)O)C(=O)N[C@@H](CCCCN)C(=O)N[C@H](C(=O)N[C@@H](Cc1c[nH]cn1)C(=O)N[C@@H](CCC(N)=O)C(=O)NC(C)(C)C(=O)N[C@@H](CC(=O)O)C(=O)N[C@@H](Cc1ccccc1)C(=O)N[C@H](C(=O)N[C@@H](CCC(=O)O)C(=O)N[C@@H](Cc1ccncc1)C(=O)N[C@@H](CCCCNC(=O)COCCOCCNC(=O)COCCOCCNC(=O)CC[C@H](NC(=O)CCCCCCCCCCCCCCCCCCC(=O)O)C(=O)O)C(=O)N[C@@H](CC(C)C)C(=O)N[C@@H](CCC(=O)O)C(=O)N[C@@H](CCC(N)=O)C(=O)NCC(=O)N1CCC[C@H]1C(=O)N[C@@H](CO)C(=O)N[C@@H](CO)C(=O)NCC(=O)N[C@@H](C)C(=O)N1CCC[C@H]1C(=O)N1CCC[C@H]1C(=O)N1CCC[C@H]1C(=O)N[C@@H](CO)C(N)=O)C(C)C)[C@@H](C)CC
B6: Example 45 (peptide)
peptide: Y[Aib]EGTFISDYSI[αMeL]LDKK([AEEA-AEEA-γGlu-C20 diacid])HQ[Aib]DFVE[4Pal]LLETGPSSGAPPPS-NH2
modifications: N-terminus assumed
SMILES: CC[C@H](C)[C@H](NC(=O)[C@H](Cc1ccccc1)NC(=O)[C@@H](NC(=O)CNC(=O)[C@H](CCC(=O)O)NC(=O)C(C)(C)NC(=O)[C@@H](N)Cc1ccc(O)cc1)[C@@H](C)O)C(=O)N[C@@H](CO)C(=O)N[C@@H](CC(=O)O)C(=O)N[C@@H](Cc1ccc(O)cc1)C(=O)N[C@@H](CO)C(=O)N[C@H](C(=O)N[C@@](C)(CC(C)C)C(=O)N[C@@H](CC(C)C)C(=O)N[C@@H](CC(=O)O)C(=O)N[C@@H](CCCCN)C(=O)N[C@@H](CCCCNC(=O)COCCOCCNC(=O)COCCOCCNC(=O)CC[C@H](NC(=O)CCCCCCCCCCCCCCCCCCC(=O)O)C(=O)O)C(=O)N[C@@H](Cc1c[nH]cn1)C(=O)N[C@@H](CCC(N)=O)C(=O)NC(C)(C)C(=O)N[C@@H](CC(=O)O)C(=O)N[C@@H](Cc1ccccc1)C(=O)N[C@H](C(=O)N[C@@H](CCC(=O)O)C(=O)N[C@@H](Cc1ccncc1)C(=O)N[C@@H](CC(C)C)C(=O)N[C@@H](CC(C)C)C(=O)N[C@@H](CCC(=O)O)C(=O)N[C@H](C(=O)NCC(=O)N1CCC[C@H]1C(=O)N[C@@H](CO)C(=O)N[C@@H](CO)C(=O)NCC(=O)N[C@@H](C)C(=O)N1CCC[C@H]1C(=O)N1CCC[C@H]1C(=O)N1CCC[C@H]1C(=O)N[C@@H](CO)C(N)=O)[C@@H](C)O)C(C)C)[C@@H](C)CC

These binders were tested against T1, human GLP-1 receptor (human, UniProt P43220 24-463) (assay: SPA, displacement of [125I]-GLP-1 from hGLP-1R membranes, 0.1% bacitracin).
T1 construct: whole, on cells; Assayed as crude membranes of stably transfected HEK293 cells; also called hGLP1R; hGLP-1R
In short: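 Binding buffer: 25 mM HEPES pH 7.4, 2.5 mM CaCl₂, 1 mM MgCl₂, 0.1% bacitracin, 0.003% Tween-20, protease inhibitors without EDTA. Four-parameter nonlinear regression; Kᵢ given as geometric mean ± SEM, n = independent replicates run on different days.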

In order of falling Ki:
1. B2  596 nM
2. B1  262 nM
3. B3  177 nM

What follows are binders tested against T2, human glucose-dependent insulinotropic polypeptide (GIP) receptor (human, UniProt P48546 22-466) (assay: SPA, displacement of [125I]-GIP from hGIPR membranes, 0.1% bacitracin).
T2 construct: whole, on cells; Assayed as crude membranes of stably transfected CHO cells; also called hGIPR; human GIP receptor
T2 sequence (looked up): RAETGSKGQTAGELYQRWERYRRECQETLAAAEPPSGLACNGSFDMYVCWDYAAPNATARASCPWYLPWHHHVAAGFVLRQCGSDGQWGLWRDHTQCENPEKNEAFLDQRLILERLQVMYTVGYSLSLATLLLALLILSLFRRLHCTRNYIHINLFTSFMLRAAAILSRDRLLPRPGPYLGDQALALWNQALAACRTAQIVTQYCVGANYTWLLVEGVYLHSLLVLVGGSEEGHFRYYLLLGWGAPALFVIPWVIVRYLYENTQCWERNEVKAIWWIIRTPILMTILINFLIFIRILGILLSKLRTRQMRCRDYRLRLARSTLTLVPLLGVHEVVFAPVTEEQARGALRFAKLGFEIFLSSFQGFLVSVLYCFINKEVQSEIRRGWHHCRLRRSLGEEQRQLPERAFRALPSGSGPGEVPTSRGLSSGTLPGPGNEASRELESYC

In order of rising Ki:
1. B1  0.0331 nM
2. B3  0.0351 nM
3. B2  0.0512 nM
4. B6  0.0663 nM
5. B5  0.103 nM
6. B4  0.143 nM

Each binder was assayed against T3, human glucagon receptor (human, UniProt P47871 26-477) (assay: SPA, displacement of [125I]-Gcg from hGcgR membranes, 0.1% bacitracin).
T3 construct: whole, on cells; Assayed as crude membranes of stably transfected HEK293 cells; also called hGcgR; GcgR
Method: The binding buffer contains 25 mM 4-(2-hydroxyethyl)-1-piperazineethanesulfonic acid (HEPES), pH 7.4, 2.5 mM CaCl₂), 1 mM MgCl₂, 0.1% (w/v) bacitracin (Research Products), 0.003% (w/v) Polyoxyethylenesorbitan monolaurate (TWEEN®-20), and Roche Complete™ Protease Inhibitors without EDTA. […] Plates are sealed and mixed on a plate shaker (setting 6) for 1 minute and read with a PerkinElmer Trilux MicroBeta® scintillation counter after 12 hours of incubation/settling time at room temperature.
Data are analyzed using four-parameter (curve maximum, curve minimum, […], Hill slope) nonlinear regression routines (Genedata Screener, version 12.0.4, Genedata AG, Basal, Switzerland). […] Values for Kᵢ are reported as the geometric mean, with error expressed as the standard error of the mean (SEM) and n is equal to the number of independent replicates (determined in assays performed on different days).

T3 sequence (P47871 26-477): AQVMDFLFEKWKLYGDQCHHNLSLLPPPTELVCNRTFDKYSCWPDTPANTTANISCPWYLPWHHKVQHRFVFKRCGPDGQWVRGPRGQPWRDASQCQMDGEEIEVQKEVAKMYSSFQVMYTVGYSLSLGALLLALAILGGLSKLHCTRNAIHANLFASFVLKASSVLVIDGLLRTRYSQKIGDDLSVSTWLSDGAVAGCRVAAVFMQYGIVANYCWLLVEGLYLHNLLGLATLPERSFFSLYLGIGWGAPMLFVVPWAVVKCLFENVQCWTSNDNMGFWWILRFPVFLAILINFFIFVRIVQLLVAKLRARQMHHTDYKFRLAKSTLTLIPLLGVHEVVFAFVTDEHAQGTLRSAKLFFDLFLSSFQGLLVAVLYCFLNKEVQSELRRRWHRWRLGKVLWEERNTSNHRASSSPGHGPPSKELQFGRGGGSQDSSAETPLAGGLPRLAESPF

In order of rising Ki:
1. B5  94.9 nM
2. B6  660 nM
3. B4  758 nM
